Source: US20230407373A1 (priority 2020, published 2023)
Like-named read-outs stand apart in the source and are kept apart here.

B1: EDF1 (protein, UniProt O60869 2-148, looked up)
Endothelial …: AESDWDTVTVLRKKGPTAAQAKSKQAILAAQRRGEDVETSKKWAAGQNKQHSITKNTAKLDRETEELHHDRVTLEVGKVIQQGRQSKGLTQKDLATKINEKPQVIADYESGRAIPNNQVLGKIERAIGLKLRGKDIGKPIEKGPRAK
B2: KHSRP (protein, UniProt Q92945 2-711, looked up)
Far upstream element-binding …: SDYSTGGPPPGPPPPAGGGGGAGGAGGGPPPGPPGAGDRGGGGPGGGGPGGGSAGGPSQPPGGGGPGIRKDAFADAVQRARQIAAKIGGDAATTVNNSTPDFGFGGQKRQLEDGDQPESKKLASQGDSISSQLGPIHPPPRTSMTEEYRVPDGMVGLIIGRGGEQINKIQQDSGCKVQISPDSGGLPERSVSLTGAPESVQKAKMMLDDIVSRGRGGPPGQFHDNANGGQNGTVQEIMIPAGKAGLVIGKGGETIKQLQERAGVKMILIQDGSQNTNVDKPLRIIGDPYKVQQACEMVMDILRERDQGGFGDRNEYGSRIGGGIDVPVPRHSVGVVIGRSGEMIKKIQNDAGVRIQFKQDDGTGPEKIAHIMGPPDRCEHAARIINDLLQSLRSGPPGPPGGPGMPPGGRGRGRGQGNWGPPGGEMTFSIPTHKCGLVIGRGGENVKAINQQTGAFVEISRQLPPNGDPNFKLFIIRGSPQQIDHAKQLIEEKIEGPLCPVGPGPGGPGPAGPMGPFNPGPFNQGPPGAPPHAGGPPPHQYPPQGWGNTYPQWQPPAPHDPSKAAAAAADPNAAWAAYYSHYYQQPPGPVPGPAPAPAAPPAQGEPPQPPPTGQSDYTKAWEEYYKKIGQQPQQPGAPPQQDYTKAWEEYYKKQAQVATGGGPGAPPGSQPDYSAAWAEYYRQQAAYYGQTPGPGGPQPPPTQQGQQQAQ
B3: FUS (protein, UniProt P35637 1-526, looked up)
RNA-binding protein FUS: MASNDYTQQATQSYGAYPTQPGQGYSQQSSQPYGQQSYSGYSQSTDTSGYGQSSYSSYGQSQNTGYGTQSTPQGYGSTGGYGSSQSSQSSYGQQSSYPGYGQQPAPSSTSGSYGSSSQSSSYGQPQSGSYSQQPSYGGQQQSYGQQQSYNPPQGYGQQNQYNSSSGGGGGGGGGGNYGQDQSSMSSGGGSGGGYGNQDQSGGGGSGGYGQQDRGGRGRGGSGGGGGGGGGGYNRSSGGYEPRGRGGGRGGRGGMGGSDRGGFNKFGGPRDQGSRHDSEQDNSDNNTIFVQGLGENVTIESVADYFKQIGIIKTNKKTGQPMINLYTDRETGKLKGEATVSFDDPPSAKAAIDWFDGKEFSGNPIKVSFATRRADFNRGGGNGRGGRGRGGPMGRGGYGGGGSGGGGRGGFPSGGGGGGGQQRAGDWKCPNPTCENMNFSWRNECNQCKAPKPDGPGGGPGGSHMGGNYGDDRRGGRGGYDRGGYRGRGGDRGGFRGGRGGGDRGGFGPGKMDSRGEHRQDRRERPY
B4: ATXN2L: host protein, UniProt Q8WWM7 (protein, UniProt Q8WWM7 1-1075, looked up)
Ataxin-2-like protein: MLKPQPLQQPSQPQQPPPTQQAVARRPPGGTSPPNGGLPGPLATSAAPPGPPAAASPCLGPVAAAGSGLRRGAEGILAPQPPPPQQHQERPGAAAIGSARGQSTGKGPPQSPVFEGVYNNSRMLHFLTAVVGSTCDVKVKNGTTYEGIFKTLSSKFELAVDAVHRKASEPAGGPRREDIVDTMVFKPSDVMLVHFRNVDFNYATKDKFTDSAIAMNSKVNGEHKEKVLQRWEGGDSNSDDYDLESDMSNGWDPNEMFKFNEENYGVKTTYDSSLSSYTVPLEKDNSEEFRQRELRAAQLAREIESSPQYRLRIAMENDDGRTEEEKHSAVQRQGSGRESPSLASREGKYIPLPQRVREGPRGGVRCSSSRGGRPGLSSLPPRGPHHLDNSSPGPGSEARGINGGPSRMSPKAQRPLRGAKTLSSPSNRPSGETSVPPPPAVGRMYPPRSPKSAAPAPISASCPEPPIGSAVPTSSASIPVTSSVSDPGVGSISPASPKISLAPTDVKELSTKEPGRTLEPQELARIAGKVPGLQNEQKRFQLEELRKFGAQFKLQPSSSPENSLDPFPPRILKEEPKGKEKEVDGLLTSEPMGSPVSSKTESVSDKEDKPPLAPSGGTEGPEQPPPPCPSQTGSPPVGLIKGEDKDEGPVAEQVKKSTLNPNAKEFNPTKPLLSVNKSTSTPTSPGPRTHSTPSIPVLTAGQSGLYSPQYISYIPQIHMGPAVQAPQMYPYPVSNSVPGQQGKYRGAKGSLPPQRSDQHQPASAPPMMQAAAAAGPPLVAATPYSSYIPYNPQQFPGQPAMMQPMAHYPSQPVFAPMLQSNPRMLTSGSHPQAIVSSSTPQYPSAEQPTPQALYATVHQSYPHHATQLHAHQPQPATTPTGSQPQSQHAAPSPVQHQAGQAPHLGSGQPQQNLYHPGALTGTPPSLPPGPSAQSPQSSFPQPAAVYAIHHQQLPHGFTNMAHVTQAHVQTGITAAPPPHPGAPHPPQVMLLHPPQSHGGPPQGAVPQSGVPALSASTPSPYPYIGHPQGEQPGQAPGFPGGADDRIREFSLAGGIWHGRAEGLQVGQDARVLGGE
B5: PABPN1 (protein, UniProt Q86U42 2-306, looked up)
Polyadenylate-binding protein …: AAAAAAAAAAGAAGGRGSGPGRRRHLVPGAGGEAGEGAPGGAGDYGNGLESEELEPEELLLEPEPEPEPEEEPPRPRAPPGAPGPGPGSGAPGSQEEEEEPGLVEGDPGDGAIEDPELEAIKARVREMEEEAEKLKELQNEVEKQMNMSPPPGNAGPVIMSIEEKMEADARSIYVGNVDYGATAEELEAHFHGCGSVNRVTILCDKFSGHPKGFAYIEFSDKESVRTSLALDESLFRGRQIKVIPKRTNRPGISTTDRGFPRARYRARTTNYNSSRSRFYSGFNSRPRGRVYRGRARATSWYSPY

Legend:
Format in all cases: binding
SARS-CoV-2 gRNA = conditions: for target (unweighted spectral count of the protein in the RNP capture): LC-MS/MS, Probe I sample (first 199 lines of Table 2)
HCoV-OC43 gRNA and sgRNA = conditions: for target (unweighted spectral count, OC43 Probe II capture) / target (unweighted spectral count): tested against no-probe control; for target (unweighted spectral count, OC43 Probe II capture): FDR<10%; for target (unweighted spectral count): OC43 Probe II, infected cells; for target (unweighted spectral count, OC43 Probe II) / background (unweighted spectral count, no-probe control): type n_48_v, 48 hpi; for target (unweighted spectral count, OC43 Probe II): OC43 Probe II capture on infected cells; for background (unweighted spectral count, no-probe control): no-probe control on infected cells
[1] = system: SARS-CoV-2 gRNA and sgRNAs; conditions: for target (unweighted spectral count in RNP capture): Probe II capture, LC-MS/MS LFQ; for background (unweighted spectral count in control): no-probe control pull-down, used as background for Probe II

Molecule | target (unweighted spectral count in RNP capture) (SARS-CoV-2 gRNA; Probe I capture, […], LC-MS/MS LFQ) | background (unweighted spectral count in control) (SARS-CoV-2 gRNA; no-probe control pull-down, used as background for Probe I) | target (unweighted spectral count, OC43 Probe II capture) (HCoV-OC43 gRNA and sgRNA; 24 hpi, type n_24_v) | target (unweighted spectral count in RNP capture) [1] | background (unweighted spectral count in control) [1] | target (unweighted spectral count of the protein in the RNP capture) (SARS-CoV-2 gRNA; […]) | target (unweighted spectral count, OC43 Probe II capture) (HCoV-OC43 gRNA and sgRNA; 36 hpi, type n_36_v) | target (unweighted spectral count) (HCoV-OC43 gRNA and sgRNA; 12 hpi (type n_12_v)) | target (unweighted spectral count) (HCoV-OC43 gRNA and sgRNA; 24 hpi (type n_24_v)) | target (unweighted spectral count, OC43 Probe II) (HCoV-OC43 gRNA and sgRNA) | background (unweighted spectral count, no-probe control) (HCoV-OC43 gRNA and sgRNA) | target (spectral count) (HCoV-OC43 gRNA and sgRNA; type s_36_m, HCoV-OC43-infected HCT-8 cells, 36 hpi, Probe II) | background (spectral count) (HCoV-OC43 gRNA and sgRNA; type s_36_m, uninfected-probe control, 36 hpi, Probe II)
B1 | 5 | 1 | 4 | 8 | 1 | – | – | – | – | – | – | – | –
B2 | – | – | – | 82 | 1 | 128 | 76 | 23 | 47 | 86 | 5 | – | –
B3 | – | – | – | 7 | 1 | 5 | 7 | 6 | 9 | 11 | 1 | – | –
B4 | – | – | – | 28 | 1 | 9 | 10 | 4 | 6 | 12 | 1 | 10 | 1
B5 | – | – | 5 | 11 | 1 | 12 | – | – | – | 8 | 2 | – | –
